From patent US8969530B2, “Anti-clathrin heavy chain monoclonal antibody for inhibition of tumor angiogenesis and growth and application thereof” (Academia Sinica, priority 2011, dated 2015)

Key:
[1] = tested on: MIA PaCa-2 cells; assay: Binding of Pa65-2 to cells by ELISA, flow cytometry and immunofluorescence; format: cell-based, human; conditions: flow cytometry, immunofluorescent analyses
Experimental: Cells were cultured in 96-well polystyrene plates for 3 days and then fixed with 2% paraformaldehyde. After blocking and washing twice with PBS/0.1 % Tween 20 (PBST0.1), the hybridoma supernatants were added and the plates were incubated for 2 h at room temperature. This was followed by washing and incubating with horseradish peroxidase (HRP)-conjugated goat anti-mouse IgG for 1 h. The colorimetric reaction was developed with the substrate ortho-phenylene-diamine (OPD) according to the manufacturer's instructions (Sigma), and was stopped by adding 3 N HCl. Absorbance at 490 nm was measured using a microplate reader. Each control and test group was tested in triplicate. Each experiment was repeated at least three times. To analyse binding, cells (1×10^5 cells per tube) were prepared, washed, centrifuged, and resuspended in 100 μl of PBS/1% FCS containing Pa65-2 or NM-IgG. Cells were incubated at 4° C. for 1 h, washed twice with PBS/1% FCS and stained with […] isothiocyanate (FITC)-labeled goat anti-mouse IgG at 4° C. for 20 min. The stained cells were washed twice and fluorescence signals were measured using a FACScan (BD). […]
(§1) 3×10^3 cells were cultured into each well of 96-well polystyrene plates for 3 days and fixed with 2% paraformaldehyde. […] Absorbance at 490 nm was measured using a microplate reader. […]

[2] = tested on: pancreatic adenocarcinoma cell lines MIA PaCa-2 and AsPC-1; assay: ELISA and Western blot binding screen on pancreatic adenocarcinoma cell lines; format: cell-based, human; conditions: MIA PaCa-2, AsPC-1 versus normal HUVEC, NNM, CCD-1112Sk
Experimental: (§2) Cells were extracted with RIPA buffer and the supernatants were immunoprecipitated using either anti-CHC antibody, Pa65-2, mAb X-22 (Affinity), or anti-HIF-1α antibody (BD), then analyzed by immunoblotting. The signals were developed using enhanced chemiluminescence reagents (ECL) (Thermo).
(§3) Cells were cultured in 96-well polystyrene plates for 3 days and then fixed with 2% paraformaldehyde. After blocking and washing twice with PBS/0.1 % Tween 20 (PBST0.1), the hybridoma supernatants were added and the plates were incubated for 2 h at room temperature. This was followed by washing and incubating with horseradish peroxidase (HRP)-conjugated goat anti-mouse IgG for 1 h. The colorimetric reaction was developed with the substrate ortho-phenylene-diamine (OPD) according to the manufacturer's instructions (Sigma), and was stopped by adding 3 N HCl. Absorbance at 490 nm was measured using a microplate reader. Each control and test group was tested in triplicate. Each experiment was repeated at least three times. […] The stained cells were washed twice and fluorescence signals were measured using a FACScan (BD).
as §1

[3] = tested on: MDAMB-231 (breast cancer), CL1-5 (lung cancer), SKOV3 (ovary cancer) and SAS (oral cancer); assay: ELISA and Western blot binding on other cancer cell lines; format: cell-based, human; conditions: MDAMB-231, CL1-5, SKOV3, SAS
Experimental: as §2, §3, §1

[4] = tested on: blood vessels of human pancreatic cancer tissues; assay: Immunofluorescent co-staining of Pa65-2 and UEA-1 in pancreatic cancer tissue
Experimental: The human pancreatic cancer gene expression arrays (Origene) were analyzed by an ABI9600 thermocycler (Applied Biosystems). Tissue arrays were purchased from Pantomics Inc. Tissue sections were stained with antibodies specific for CHC (Pa65-2), VEGF (GeneTex), HIF-1α (Millipore), NM-IgG, and UEA-1-FITC (Vector). Quantification of DAB intensity was by HistoQuest software (TissueGnostics). The protocol was approved by the institutional Review Board of Human Subjects Research Ethics Committee of Academia Sinica (Taipei).

[5] = tested on: MIA PaCa-2 cells; assay: Matrigel invasion assay; format: cell-based, human
Experimental: RT-CES (ACEA), a microelectronic cell sensor system, was used to count tire number of living cells. Cells (5×10^3) were seeded into each sensor-containing well in microliter plates. The electronic sensors provided a continuous (every 6 h), quantitative measurement of the cell index in each well. Cell growth was measured for 72 h, and cell indices for each well were recorded at all time points. Cell invasion was assayed in 24-well Biocoat Matrigel invasion chambers (8 μm; Millipore) according to the manufacturer's directions. Cells were counted under a microscope in five predetermined fields. Assays were performed in triplicate.

[6] = tested on: MIA PaCa-2 cells; assay: Apoptosis assay (FLICA caspase activity); format: cell-based, human; conditions: 24 h
Experimental: Apoptosis of cultured cells was verified through the detection of caspase activity using sulforhodamine FLICA apoptosis detection kit (Immunochemistry Technologies). Cells in 96-well culture plates were treated with Pa65-2 or NM-IgG for 24 h. After incubating with FLICA, cells was read at ex/era of 550/595 nm with fluorescence plate reader (Molecular Devices).

[7] = tested on: HUVECs; assay: Apoptosis in HUVEC by TUNEL staining; format: cell-based, human
Experimental: (§4) CD31 staining and TUNEL assays were carried out as described previously. The slides were then visualized under a fluorescent microscope and analyzed with MetaMorph software.

[8] = tested on: MIA PaCa-2-derived pancreatic cancer xenografts; assay: Antitumor efficacy of Pa65-2 in pancreatic cancer xenografts; format: in vivo, NOD/SCID mice
Experimental: All animal experiments were performed as per the guidelines of the National Laboratory Animal Center. The protocol was approved by the Committee on the Ethics of Animal Experiments of Academia Sinica (Taipei). A xenograft model was generated by injecting NOD/SCID mice with MIA PaCa-2 cells transduced with either CHC shRNA or control vector. The two kinds of transduced cells were injected into different lateral sides of the hind limbs of eight animals at the same time. For analysis of antitumor efficacy of Pa65-2, NOD/SCID mice bearing MIA PaCa-2-derived pancreatic cancer xenografts (˜50 mm^3) were intravenously injected in the tail vein with Pa65-2, or gemcitabine, or NM-IgG, or equivalent
volumes of PBS. Tumors were measured by calipers every three days, and mice were observed routinely for weight loss as a symptom of drug toxicity. The tumor volumes were calculated as length×(width)^2×0.52. Animals were treated following the guidelines established by Academia Sinica (Taipei).
as §4

B1: Pa65-2: monoclonal antibody that recognizes human clathrin heavy chain (CHC); VH SEQ ID NO: 2, VL SEQ ID NO: 3 (antibody, listed as Homo sapiens, V domains shown)
VH: EVKLVESGGGLVKPGGSLNISCAASGFTFSNYVMSWVRQTPEKRLEWVATISSGDNYMYYPDSVKGRFTISSDNAKNTLFLQMSSLRSEDTALYYCARHFDNYEGNSMDYWGQGTSVTVSSAKTTPPSDYPLA
VL: DIVLTQSPATLSVTPGDSVSLSCRASQSIRSNLHWYQQKSHESPRLLIKYASQSISGIPSRFSGSGSGTDFILSINSVATEDFGVYFCQQSNSWPLTFGAGTKLELKRADAAPTVS
recognition of MIA PaCa-2 cells [1]: specifically recognize MIA PaCa-2 cells
binding affinity to pancreatic cancer cell lines [2]: strong binding affinity
binding to other types of cancer cell lines [3]: can also bind
colocalization of Pa65-2 antigen with endothelial cell marker UEA-1 [4]: colocalized
migration (FIG. 5C) [5]: inhibited
cell apoptosis [6]: induced cell apoptosis
apoptosis in HUVECs [7]: induced apoptosis
average tumor volume smaller than the control groups ([8]; 10 mg/kg i.v. every three days, day 36, n=6, P<0.05): about 2 fold
blood vessels in tumor sections ([8]; CD31 staining, P<0.05): decreased
inhibitory effect on tumor growth compared with gemcitabine ([8]; Pa65-2 10 mg/kg versus gemcitabine 15 mg/kg, i.v.): equivalent effects
apoptotic cells in tumor sections ([8]; TUNEL, n=6, P<0.01): increased
